Values joined by “and” are separate entries in the source; they are usually repeats but may differ in a detail not shown here. Identical values can stand only once. Like-named read-outs stand apart in the source and are kept apart here.
Tests used:
[1] = target: full length canine CTLA-4 on cells (KTδ32.cCTLA-4 cells; canine T cells and regulatory T cells) (canine) (UniProt Q9XSI1)
[2] = target: full length canine CTLA-4 on cells (KTδ32.cCTLA-4 cells; canine T cells and regulatory T cells) (canine) (UniProt Q9XSI1); remark: listed apart in the source
[3] = target: feline CTLA-4 in feline CD5+ leucocytes (feline) (UniProt Q9XTA1)
[4] = target: full length canine CTLA-4 on cells (KTδ32.cCTLA-4 cells; canine T cells and regulatory T cells) (canine) (UniProt Q9XSI1); remark: listed apart in the source
[5] = target: feline CTLA-4 in feline CD5+ leucocytes (feline) (UniProt Q9XTA1); remark: listed apart in the source
[6] = target: feline CTLA-4 in feline CD5+ leucocytes (feline) (UniProt Q9XTA1); assay: flow cytometry, feline PBMC, Surface labeling, anti-HA secondary alone, gated Lymphocytes>Single cells>Live>CD5+

Row | Substance | % of gated cells in Q5 (CTLA4+ CD4-) [1] | % of gated cells in Q6 (CTLA4+ CD4+) [1] | % of gated cells in the CTLA4 gate [2] | % of gated cells in the CTLA4 gate [3] [%] | % of cells in the CTLA4(HA.APC) gate [4] | % of gated cells in the CTLA4 gate [5] [%] | % of gated cells in the CTLA4 gate [6] [%]
1 | irrelevant MERS mAb (antibody) | 0.014% and 4.28% and 0.42% | 0.72% and 5.32% and 0.68% | 8.33% and 0% | 0.5 | 4.23% and 1.9% | 0.13 | –
2 | 2nd only (anti-HA secondary alone) | – | – | – | – | – | – | 3.8

— US20240109967A1
